Experiment: soluble on expression in E. coli; label from the status in PepcDB or PDB records

| Sequence | soluble on expression in E. coli |
| --- | --- |
| MASMAAELRPSDGGSSLHMLDSLLMMGLSSGGGVGGGGSSQSQILDSAGAAELAALLLPQHSNDPLHLMSTGDAALGLAGPMAAAEHHQHHPHHQHHSVPATAGFPSQTPPPPLFSNATAGAAPATRVRAAGSCGSGGVAGGTTSHSSEDGVFHSADPHHHHQQHLQQPQPQQQQQQQQQPQHQQQQQQQQQQQPQQPQFHHHQPQQHQAQQAVAATAPAAAADHLFLPPAAAGAAGQQQAGWGAATGAHLFHSDAPNRPNGPKTPTNRNGYAMKPPPPAAAAAVMSGHAMAASGVVAGRGGGGGGCDAEEDELTFAAAAAAEVSSDDEVMGGRGGAVMGRAAVGGFRTPAPAPASAGAAVNVAAAAPAAPAGTWVPKGKPAVEVSAWAPAPAAPVAAAAAAAVAVSPTVAAFAAAPVVEAVALVRSQQRQEQEHQLVQVAAAEQQDQQQAKRPVRSSRRRAQESQQAAAEAQQAAQQAAAAQQQQQHTGSGNIVGDKQGKPQGGLQQGRPVATQPSPPPPAVATAAAAAAATAPVATAPVATVATAATADTMPQRLTAVQQHEAYPAVVRGTLDVRKACLPRFPLVAREQAEAELQSVATAALQQAAAAPGASAAVTAAAAAAAAAATAAGEGKAGEGKAATARRGGRGAAEAEAAAALPAVGASGNPGLDEAMGAYVRVAALYGDEAAAAVAECESLMADFDNKLQLGNLATTFAAAASPTAAASGRARGGARSGGVGGGGTKRVASGANASGANSSGMSGGGGGDSAGAEAAAGDEMEWAPGATSVDTATGGADDEDGEEEEGQQPGGAAAAAAVAAAGGEASQLAASIAATYGSQLVQVAASLAQRPKVGKLPPAATQLLKGWWDDNFVWPYPSEEDKKQLGEAAALNNTQINNWFINQRKRHWHKHFPNRRPPSTREEAERLLRAAGAI | not soluble |
| MLTYIILVLHLQNHVWEDVTVHNSSLPPLAIKHPECLGLLHQLERSTDVWIQHYCILKDGCLYFYASIRSTQASGGLYLQGYSVSEQTHGFEQPVIELKPSSEEFKTFYFCAENKTENQRWIAALKTSIKKWLPLDQAIQEFMSRPLEETRM | not soluble |
| MGHHHHHHSHMARKLKGKIGSKGLKGALLRHKAKVKLVRNIESKQKHELRKKNSSANNKTVKRNQEFQKLNQGKVMPFEKDETLMLCGEGDFSFARSIVEQNYIESDNLIITSYDNSVNELKLKYPHTFEENYQYLKDLNIPIFFQIDVTKLVKSFKISKNNTWFKIINRLSDHRWGNKPLQNIVFNFPHNGKGIKDQERNIREHQDLIFNFFQNSLQLFNLINTKIQNDTLRYTQGYDLNEDTPQAKKLTAEGYGNIILSLFDGEPYDSWQIKLLAKKNGLTLSRSSKFQWENFP | soluble |
| MAHHHHHHMQKTLFDFVRKGTSSGPAAANAVAAAHRERQWPSASNGEDSTPRTDSPPKKHAKTRREGSRSRGNSRECEGTSLKGASRDDAIDLDASVSVALLESTFPPSEEGGAIDKSKHVSSGTAVPAGAAATAAASSGTARSDAPQLQPAATSSRWLAGLITNLEWRDFLAPITVDSWRSGAFARIEHFLDGEMAKGKVILPPATDIFNAFNSCPFRDLKVVLLGQDPYHDLHQAHGLCFSVLPEVPLPPSLRNIYKELTTDIPGFQAPRHGYLQSWSEQGMLMLNATLTVEAHKANSHSKASGWTAFTDAVIQHLSQHHPNRLVFLLWGGYAQQKKKLIDASRHIVLESVHPSPLSASRGWFGCHCFSACNEALQSMGHLPMHWQLPLNASLP | not soluble |
| MTLYRLHEADLEIPDAWQDQSINIFKLPASGPAREASFVISRDASQGDAPFADYVARQLENAEKQLPGFKLHKRWDINIHGHAAVLLDYQWQREGRDLMLRQVFIERRPAVLITTLTTTPADLPHHEPAWKQAMQTLVPRPTPS | soluble |
| MKIGIVGLGRVGSSTAFALLMKGFAREMVLIDVDKKRAEGDALDLIHGTPFTRRANIYAGDYADLKGSDVVIVAAGVPQKPGETRLQLLGRNARVMKEIARNVSKYAPDSIVIVVTNPVDVLTYFFLKESGMDPRKVFGSGTVLDTARLRTLIAQHCGFSPRSVHVYVIGEHGDSEVPVWSGAMIGGIPLQNMCQVCQKCDSKILENFAEKTKRAAYEIIERKGATHYAIALAVADIVESIFFDEKRVLTLSVYLEDYLGVKDLCISVPVTLGKHGVERILELNLNEEELEAFRKSASILKNAINEITAEENKHQNTSG | soluble |
| MGSDKIHHHHHHMVIENAMNIQFVLKDFSTFGGVERIQYNLAKKFKNDGHNVSFYILNGDSVALDTSHEFIIHKGSKSGFITFLFEIIKLRNNIYKNRIDVVIAAKEQANIAAFFATIFTKVSTIYTRHSALNVSEQRINERSVLLIYSLLTLSKGKVVTVSHDLKYSLLKSLPWGKDKIHVCPNPVLTESIYLKSLQPITDFKLPLSYICSVGRLTRTKGFDVLIQAYKQCITKELNFPDLVIAGSGEEYASLVKLTQELNVADKVHFLGHIDNPYVLMKNSSGFVLSSRNEGLPTVLIEAIALGTNVVSTDCLTGPREILDGGRIGKLVPVEDVRSLAEAMLTLPLHKLSESEIREMDRYSLEQSAIAYFKLFTKKSH | not soluble |
| GEEDLCAAFNVICDNVGKDWRRLARQLKVSDTKIDSIEDRYPRNLTERVRESLRIWKNTEKENATVAHLVGALRSCQMNLVADLVQEVQQARDLQNRSGAMSPMSWNSDASTSEASHHHHHH | soluble |
| MIVVLKMGADKNEVKKLIEAIGREGVEVNPIDGTELTVLGLVGDTSKIDAKRIEANKVVEKVMHVVEPFKKANRKFHPEPSIINVNGMEIGSKKIAMIAGPCSVETEDQIVSIAKDVKKSGAGFLRGGAFKPRTSPYAFQGLKYDGLDLLKKAKEKTGLPIVTEIMSTQDIDIFEENVDVIQVGARNMQNFDLLKELGKTNKTILLKRGLSATIEEWLMSAEYIMAGGNENVVLCERGIRTFETYTRNTLDLSAILAVKKLSHLPVIVDPSHAAGKSWMVDSLSKAAIAVGADGLIIEVHNDPAHALCDGKQSIKPNEYDELISELKTIASAVGREI | not soluble |
| MVTRVLIVGDGDAGTIMANKLRFHTDRRDVDITVVGNSKDHYFKPDGVHISFNMVDYKKSVKPTEFLFNYGVNYIRDTVSRIDVADHSVQTTGGRNLDYDYLIIATGDRFTPEDVPGYAESAKHFYDLPHALELQKEIKGFKGGKVVIGQASIPIMCPPAPYEFTFLLEEYLNFHGLKDKTEIHYIYPLNRVFTIPNVADFVAKRMEERGIITHTLFNVESIDPKNKKIQSLEGESINYDLLVLIPPHRGQKVITDSGLADESGYIDVDKYKLNYKDYDNVFAIGDATNLPVSKAGATAHFEALYLSNRIAAETSGNVYNELYEGDVACTTVTGYEKGLTLYFNYNKPPRANYDSKLDYFLKWQSGDTFFSSMLRGVALEHHHHHH | not soluble |
| MSGSTHTTERGTGRAAEAAPPATDRFACYVYGIVPEDVEVSPGTVGVGEPAGQVTLVRHGEIAALVSPVDVDRPLGRASDLVAHERLLDGAAAEVPVLPFRFGAVLTSPEAVVEELLAPHHDQFAAALRQLEGKAQHVLKARYAERPVLLEILRENAEARRLRDRIRDLPEDATRTERIRLGELITQAIEAKREADTQAVLDRFASCTVAANVRDPSHERDAAHVAFLVEHAKADEFAEAVEELSDEWADRVEVRVLGPMAPYDFVVAEG | not soluble |
| MLIPARMSEAEEQRWVTVMLDKLAAQESKRRLGDAELAERAERLSLQYFDGRARPTAVRWVTNQNTRWGSCTPSEGSIRLSHRLQGMPEYVVDYVLLHELAHLLVPGHGPRFWRLLEAYPRTERARGYLEGVVAADRLPHQPAPGAELEHHHHHH | not soluble |
| KAELKMLEAIEEDLNTRFADVDRKQLRLGAAGTFQKQEDADQWYKMVKDTFENEIDDIYYDSLSFSIGCHVGPNAIGIGISVVTRDEK | not soluble |
| MSLELLSKLETKIQATLETIELLKMELEEEKQKTSTLSEQNNQLIEQNQQLQQELTSWNEKVTGLVGLLNSEI | soluble |
| MHTFFVTSTGFGVGLTSTSLGLVRALEYGGLKAGFYKPVAQQHPGNSKLEYSTELISRTLGLAPPAPLPLATVEHLLGEGQIDDLMEDIVRRFKQASEGYDVMVVEGMVPTRHVSYASRVNTRLASSLDADIILVSSAEDDALQAITDRIEIQAQFFGGAQNPRLLGVILNKIRTDHSDDLFEQLKNHSTLFHQSSFQILGCIPWEDSLNAPRMADVVTQLQAQ | not soluble |

Source: the DeepSol protein solubility set
